Measurements: patent publication US20230105029A1
Several values for one entry are separate records, joined by “and”; a condition that tells them apart may be missing. Equal entries are not always repeated. Where two headings read alike, the source gives them in different places.

How the values were obtained:
[1] = target: human IL4Rα expressed on 293F-IL4Rα cells (human) (UniProt P24394); experiment: flow cytometry on 293F-IL4Rα cells, blocked ligand biotin human IL4
[2] = target: recombinant human IL4Rα-his protein (in house made) (human) (UniProt P24394); experiment: competitive ELISA: antibody mixed with biotin human IL4Rα-his, competitor plate-coated Benchmark
[3] = target: human IL4Rα expressed on 293F-IL4Rα cells (human) (UniProt P24394); experiment: flow cytometry, 293F-IL4Rα cells
[4] = target: recombinant human IL4Rα-his protein (in house made) (human) (UniProt P24394); experiment: SPR (Biacore), antibody captured, IL4Rα-his flowed
[5] = target: human IL4Rα expressed on 293F-IL4Rα cells (human) (UniProt P24394); experiment: flow cytometry on 293F-IL4Rα cells
[6] = target: recombinant human IL4Rα-his protein (in house made) (human) (UniProt P24394); experiment: competitive ELISA, blocks biotin-IL4Rα-his binding to coated Benchmark (self-competition)
[7] = target: human IL4Rα expressed on 293F-IL4Rα cells (human) (UniProt P24394); experiment: flow cytometry on 293F-IL4Rα cells, blocked ligand biotin human IL4; remark: listed apart in the source
[8] = target: recombinant human IL4Rα-his protein (in house made) (human) (UniProt P24394); experiment: capture ELISA: antibody captured on anti-IgG Fc plate, biotin human IL4Rα-his detected
[9] = target: human IL4Rα expressed on HEK293T-IL4Rα-STAT6-STAT6LUC-LB2 cells (human) (UniProt P24394); experiment: cell-based or functional assay
[10] = target: recombinant human IL4Rα-his protein (in house made) (human) (UniProt P24394); experiment: competitive ELISA: antibody mixed with biotin human IL4Rα-his, competitor plate-coated Benchmark; remark: listed apart in the source
[11] = target: cynomolgus monkey IL4Rα-his protein (cynomolgus monkey); experiment: indirect ELISA, coated cyno IL4Rα-his
[12] = target: recombinant human IL4Rα-his protein (in house made) (human) (UniProt P24394); experiment: SPR (Biacore), antibody captured, IL4Rα-his flowed; remark: listed apart in the source
[13] = target: marmoset monkey IL4Rα-his protein (marmoset monkey); experiment: indirect ELISA on coated cal-IL4Rα-his
[14] = target: recombinant human IL4Rα-his protein (in house made) (human) (UniProt P24394); experiment: capture ELISA: antibody captured on anti-IgG Fc plate, biotin human IL4Rα-his detected; remark: listed apart in the source
[15] = target: recombinant human IL4Rα-his protein (in house made) (human) (UniProt P24394); experiment: competitive ELISA: coated human IL4Rα-his, blocked ligand biotin human IL4
[16] = target: human IL4Rα expressed on 293F-IL4Rα cells (human) (UniProt P24394); experiment: flow cytometry, blocks biotin-IL4 binding to 293F-IL4Rα cells
[17] = target: human IL4Rα expressed on 293F-IL4Rα cells (human) (UniProt P24394); experiment: as above; remark: listed apart in the source
[18] = target: human IL4Rα expressed on 293F-IL4Rα cells (human) (UniProt P24394); experiment: flow cytometry on 293F-IL4Rα cells; remark: listed apart in the source
[19] = target: recombinant human IL4Rα-his protein (in house made) (human) (UniProt P24394); experiment: competitive ELISA: coated human IL4Rα-his, blocked ligand biotin human IL4; remark: listed apart in the source
[20] = target: human IL4Rα expressed on HEK293T-IL4Rα-STAT6-STAT6LUC-LB2 cells (human) (UniProt P24394); experiment: cell-based or functional assay; remark: listed apart in the source
[21] = target: recombinant human IL4Rα-his protein (in house made) (human) (UniProt P24394); experiment: competitive ELISA, blocks biotin-IL4 binding to coated IL4Rα-his
[22] = target: recombinant human IL4Rα-his protein (in house made) (human) (UniProt P24394); experiment: competitive ELISA: antibody mixed with biotin human IL4Rα-his, competitor plate-coated Benchmark; remark: listed apart in the source
[23] = target: human IL4Rα expressed on 293F-IL4Rα cells (human) (UniProt P24394); experiment: flow cytometry on 293F-IL4Rα cells; remark: listed apart in the source
[24] = target: marmoset monkey IL4Rα-his protein (marmoset monkey); experiment: indirect ELISA on coated cal-IL4Rα-his; remark: listed apart in the source
[25] = target: recombinant human IL4Rα-his protein (in house made) (human) (UniProt P24394); experiment: SPR (Biacore), antibody captured, IL4Rα-his flowed; remark: listed apart in the source
[26] = target: human IL4Rα expressed on 293F-IL4Rα cells (human) (UniProt P24394); experiment: flow cytometry on 293F-IL4Rα cells; remark: listed apart in the source
[27] = target: recombinant human IL4Rα-his protein (in house made) (human) (UniProt P24394); experiment: competitive ELISA, blocks biotin-IL4 binding to coated IL4Rα-his; remark: listed apart in the source
[28] = target: human IL4Rα expressed on 293F-IL4Rα cells (human) (UniProt P24394); experiment: flow cytometry on 293F-IL4Rα cells, blocked ligand biotin human IL4; remark: listed apart in the source
[29] = target: human IL4Rα expressed on HEK293T-IL4Rα-STAT6-STAT6LUC-LB2 cells (human) (UniProt P24394); experiment: cell-based or functional assay; remark: listed apart in the source
[30] = target: recombinant human IL4Rα-his protein (in house made) (human) (UniProt P24394); experiment: competitive ELISA: antibody mixed with biotin human IL4Rα-his, competitor plate-coated Benchmark; remark: listed apart in the source
[31] = target: recombinant human IL4Rα-his protein (in house made) (human) (UniProt P24394); experiment: SPR (Biacore), antibody captured, IL4Rα-his flowed; remark: listed apart in the source
[32] = target: recombinant human IL4Rα-his protein (in house made) (human) (UniProt P24394); experiment: capture ELISA: antibody captured on anti-IgG Fc plate, biotin human IL4Rα-his detected; remark: listed apart in the source
[33] = target: human IL4Rα expressed on 293F-IL4Rα cells (human) (UniProt P24394); experiment: flow cytometry, 293F-IL4Rα cells; remark: listed apart in the source
[34] = target: recombinant human IL4Rα-his protein (in house made) (human) (UniProt P24394); experiment: capture ELISA: antibody captured on anti-IgG Fc plate, biotin human IL4Rα-his detected; remark: listed apart in the source
[35] = target: marmoset monkey IL4Rα-his protein (marmoset monkey); experiment: indirect ELISA, coated cal-IL4Rα-his
[36] = target: recombinant human IL4Rα-his protein (in house made) (human) (UniProt P24394); experiment: capture ELISA: antibody captured on anti-IgG Fc plate, biotin human IL4Rα-his detected; remark: listed apart in the source
[37] = target: human IL4Rα expressed on 293F-IL4Rα cells (human) (UniProt P24394); experiment: flow cytometry on 293F-IL4Rα cells; remark: listed apart in the source
[38] = target: human IL4Rα expressed on 293F-IL4Rα cells (human) (UniProt P24394); experiment: flow cytometry on 293F-IL4Rα cells, blocked ligand biotin human IL4; remark: listed apart in the source
[39] = target: cynomolgus monkey IL4Rα-his protein (cynomolgus monkey); experiment: indirect ELISA on coated cynomolgus IL4Rα-his
[40] = target: human IL4Rα expressed on 293F-IL4Rα cells (human) (UniProt P24394); experiment: flow cytometry, 293F-IL4Rα cells; remark: listed apart in the source
[41] = target: cynomolgus monkey IL4Rα-his protein (cynomolgus monkey); experiment: indirect ELISA on coated cynomolgus IL4Rα-his; remark: listed apart in the source
[42] = target: recombinant human IL4Rα-his protein (in house made) (human) (UniProt P24394); experiment: competitive ELISA: coated human IL4Rα-his, blocked ligand biotin human IL4; remark: listed apart in the source
[43] = target: cynomolgus monkey IL4Rα-his protein (cynomolgus monkey); experiment: indirect ELISA, coated cyno IL4Rα-his; remark: listed apart in the source
[44] = target: human IL4Rα expressed on 293F-IL4Rα cells (human) (UniProt P24394); experiment: flow cytometry on 293F-IL4Rα cells; remark: listed apart in the source
[45] = target: recombinant human IL4Rα-his protein (in house made) (human) (UniProt P24394); experiment: competitive ELISA: coated human IL4Rα-his, blocked ligand biotin human IL4; remark: listed apart in the source
[46] = target: recombinant human IL4Rα-his protein (in house made) (human) (UniProt P24394); experiment: SPR (Biacore), antibody captured, IL4Rα-his flowed; remark: listed apart in the source
[47] = target: recombinant human IL4Rα-his protein (in house made) (human) (UniProt P24394); experiment: competitive ELISA, blocks biotin-IL4 binding to coated IL4Rα-his; remark: listed apart in the source
[48] = target: cynomolgus monkey IL4Rα-his protein (cynomolgus monkey); experiment: indirect ELISA on coated cynomolgus IL4Rα-his; remark: listed apart in the source
[49] = target: human IL4Rα expressed on 293F-IL4Rα cells (human) (UniProt P24394); experiment: flow cytometry on 293F-IL4Rα cells, blocked ligand biotin human IL4; remark: listed apart in the source
[50] = target: recombinant human IL4Rα-his protein (in house made) (human) (UniProt P24394); experiment: competitive ELISA: coated human IL4Rα-his, blocked ligand biotin human IL4; remark: listed apart in the source
[51] = target: recombinant human IL4Rα-his protein (in house made) (human) (UniProt P24394); experiment: capture ELISA, biotin-IL4Rα-his
[52] = target: human IL4Rα expressed on 293F-IL4Rα cells (human) (UniProt P24394); experiment: flow cytometry on 293F-IL4Rα cells; remark: listed apart in the source
[53] = target: recombinant human IL4Rα-his protein (in house made) (human) (UniProt P24394); experiment: capture ELISA: antibody captured on anti-IgG Fc plate, biotin human IL4Rα-his detected; remark: listed apart in the source
[54] = target: recombinant human IL4Rα-his protein (in house made) (human) (UniProt P24394); experiment: competitive ELISA, blocks biotin-IL4Rα-his binding to coated Benchmark (self-competition); remark: listed apart in the source

cynomolgus monkey IL4Rα-his protein (cynomolgus monkey), sequence (chain, as listed by the source): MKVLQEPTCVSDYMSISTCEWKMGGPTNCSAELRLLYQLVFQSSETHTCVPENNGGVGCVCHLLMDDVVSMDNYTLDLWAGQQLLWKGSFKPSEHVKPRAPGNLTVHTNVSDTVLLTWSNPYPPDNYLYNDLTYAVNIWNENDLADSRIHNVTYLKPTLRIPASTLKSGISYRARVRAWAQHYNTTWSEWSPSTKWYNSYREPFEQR
marmoset monkey IL4Rα-his protein (marmoset monkey), sequence (chain, as listed by the source limits assumed): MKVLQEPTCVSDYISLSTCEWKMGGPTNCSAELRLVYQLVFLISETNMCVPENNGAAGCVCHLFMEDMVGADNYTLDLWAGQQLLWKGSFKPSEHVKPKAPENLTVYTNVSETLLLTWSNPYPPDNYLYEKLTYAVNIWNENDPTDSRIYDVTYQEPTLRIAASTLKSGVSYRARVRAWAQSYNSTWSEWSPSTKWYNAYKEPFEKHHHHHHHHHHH

B1: anti-IL4Rα benchmark (Dupilumab) (antibody, INN chains, looked up, V domains shown)
VH: EVQLVESGGGLEQPGGSLRLSCAGSGFTFRDYAMTWVRQAPGKGLEWVSSISGSGGNTYYADSVKGRFTISRDNSKNTLYLQMNSLRAEDTAVYYCAKDRLSITIRPRYYGLDVWGQGTTVTVSS
VL: DIVMTQSPLSLPVTPGEPASISCRSSQSLLYSIGYNYLDWYLQKSGQSPQLLIYLGSNRASGVPDRFSGSGSGTDFTLKISRVEAEDVGFYYCMQALQTPYTFGQGTKLEIKR
IC50 [1]: 0.313 nM
IC50 [2]: 0.0235 nM
EC50 [3]: 0.4 nM and 0.53 nM
Kd [4]: 0.17 nM
koff [4]: 3.77e-05 s⁻¹
kon [4]: 222000 M⁻¹ s⁻¹
EC50 [5]: 0.397 nM
IC50 [6]: 0.02 nM
IC50 [7]: 0.302 nM
EC50 [8]: 0.0284 nM
Inhibition on IL4 induced STAT6 phosphorylation (IC50, nM) [9]: 0.37 nM
Inhibition on IL13 induced STAT6 phosphorylation (IC50, nM) [9]: 0.48 nM
IC50 [10]: 0.0158 nM
EC50 [11]: 0.95 nM
Kd [12]: 0.444 nM
koff [12]: 0.00033 s⁻¹
kon [12]: 742000 M⁻¹ s⁻¹
EC50 [13]: 1.84 nM
EC50 [14]: 0.0228 nM
IC50 [15]: 1.74 nM
IC50 [16]: 0.42 nM and 0.51 nM
IC50 [17]: 0.22 nM
EC50 [18]: 0.0816 nM
IC50 [19]: 0.269 nM
Inhibition on IL4 induced STAT6 phosphorylation (IC50, nM) [20]: 0.7 nM
Inhibition on IL13 induced STAT6 phosphorylation (IC50, nM) [20]: 0.84 nM
IC50 [21]: 0.68 nM
IC50 [22]: 0.189 nM
EC50 [23]: 0.254 nM
EC50 [24]: 1.72 nM
Kd [25]: 0.466 nM
EC50 [26]: 0.134 nM
IC50 [27]: 2.06 nM
IC50 [28]: 0.505 nM
Inhibition on IL4 induced STAT6 phosphorylation (IC50, nM) [29]: 0.28 nM
Inhibition on IL13 induced STAT6 phosphorylation (IC50, nM) [29]: 0.53 nM
IC50 [30]: 0.132 nM
Dissociation % [31]: -2.64%
End (RU) [31]: 70 RU
Kd [31]: 0.188 nM
Start (RU) [31]: 71.9 RU
koff [31]: 6.25e-05 s⁻¹
kon [31]: 333000 M⁻¹ s⁻¹
EC50 [32]: 0.0505 nM
EC50 [33]: 0.08 nM
EC50 [34]: 0.0517 nM
EC50 [35]: 1.72 nM and 1.84 nM
EC50 [36]: 0.0485 nM
EC50 [37]: 0.128 nM
IC50 [38]: 0.22 nM
EC50 [39]: 3.33 nM
EC50 [40]: 0.46 nM
EC50 [41]: 0.674 nM
IC50 [42]: 0.682 nM
EC50 [43]: 0.67 nM and 3.34 nM
EC50 [44]: 0.462 nM
IC50 [45]: 2.06 nM
Kd [46]: 0.746 nM
IC50 [47]: 1.74 nM and 1.56 nM
EC50 [48]: 0.954 nM
IC50 [49]: 0.421 nM
IC50 [50]: 1.56 nM
EC50 [51]: 0.05 nM
EC50 [52]: 0.526 nM
EC50 [53]: 0.0479 nM
IC50 [54]: 0.19 nM and 0.13 nM
